We go through 1 molecule from US6790824B1, “Cytokines having neurotrophic activity” (Biopharm Gesellschaft zur biotechnologischen Entwicklung …, priority 1997, dated 2004).

For experiment [1], the system named is rat embryonic mesencephalic dopaminergic neurons (E14). The experiment can be described thus: Survival of rat embryonic mesencephalic dopaminergic neurons, count of tyrosine hydroxylase (TH) immunoreactive neurons after 8 days. Type of experiment: cell-based. Particulars: GDNF 10 ng/ml, TGF-β3 2 ng/ml, 8 days in culture. As to the method:
FIG. 8 depicts the survival promoting effect of GDNF on rat embryonic mesencephalic dopaminergic neurons (E14) is dependent on the presence of TGF-β. Dissociated cultures were treated with GDNF (10 ng/ml), with GDNF in the presence of anti-TGF-β1, -β2, -β3 (10 μg/ml), with TGF-β3 (2 ng/ml) or without any growth factor added (control) for 8 days in culture. Numbers of dopaminergic neurons were determined by counting the numbers of tyrosine hydroxylase (TH) immunoreactive neurons.

The subject of experiment [2] is preganglionic neurons to the adrenal medulla. The experiment can be described thus: Preganglionic neuron protection in vivo after adrenomedullectomy. Set-up: species or system rat. Particulars: adult rats, 1 μg GDNF in gelfoam into the medullectomized adrenal gland, four weeks. How it is done:
This type of target deprivation causes the death of all preganglionic neurons to the adrenal medulla at four weeks, as previously shown by Blottner and Baumgarten (Exp. Neurol. 118 (1992) 35-46).
Adrenomedullectomy was performed on adult male Hanover-Wistar rats. Preganglionic neurons in the spinal cord innervating adrenal medullary chomaffin cells were identified by retrograde tracing with Fast Blue or Fluoro-Gold (FG). Factors (1 μg each) were soaked in gelfoam (Spongostan, Ferrosan, Soeburg, Denmark) prior to implantation into unilaterally medullectomized adrenal glands. Numbers of FG-labeled preganglionic neurons were determined by cell counts of complete series of longitudinal sections through spinal cord segments T7-T10 four weeks post-surgery. Only brightly fluorescent neurons containing a clearly visible nucleus were counted. Total numbers were corrected for possible double counts of split nuclei according to Abercombie's formula. Numbers of preganglionic neurons to the adrenal medulla surviving in sham-operated animals and on the unlesioned side were set as 100%. Data are given as mean values±SEM and the statistical significance of intergroup differences was determined by Student's t-test.

In experiment [3] the test system is chick ciliary ganglionic (CG) neurons. The experiment can be described thus: Survival of embryonic chick ciliary ganglionic (CG) neurons, 24 h, counting of surviving neurons. Type of experiment: cell-based. How it is done:
(§1) Embryonic chick ciliary (CG), dorsal root (DRG), and sympathetic (SG) ganglia at embryonic day(s) (E) 8, 10, and 12, were dissected, freed from nerve roots and connective tissue and collected in CME. Ganglia were incubated in trypsin (ICN), washed and dissociated by trituration using fire-polished Pasteur pipettes. Cultures were set up in 96-well microtiter plates (Costar, A/2), precoated with poly-L-ornithine and laminin at a density of 1,200-1,500 cells/well in DMEM supplemented with N1 additives, 0.25% BSA, and 0.1% PSN (DME/N1) and incubated at 37° C. in a 5% CO2 incubator.
(§2) At appropriate times (CG: 24 h, DRG: 48 h, SG: 72 h) cultures were fixed by addition of 2.5% glutardialdehyde in phosphate buffered saline (PBS). Numbers of surviving neurons were determined by direct counting of 30% of the surface area using phase contrast microscopy.
Phosphatidylinositol-specific phospholipase C (PIPLC) is an enzyme that specifically cleaves glycosyl-phosphatidylinositol (GPI) linkages. Embryonic chick ciliary ganglionic neurons (E8) were isolated and seeded as described before. Neurons were incubated for 1 h at 37° C. with 1) 100 mU PIPLC or II) 100 mU PIPLC+2 ng/ml TGFβ or III) without enzyme and then growth factors were added. The number of surviving neurons was determined 24 h later.

Experiment [4] deals with embryonic chicken dorsal root ganglia (DRG) neurons. The experiment can be described thus: Survival of dissociated embryonic chick dorsal root ganglia (DRG) neurons, 48 h, counting of surviving neurons. Particulars: E8, 10% horse serum, saturating GDNF; compared with NGF in serum-free medium. It is filed as cell-based.
Experiment [5] has the same test system. The experiment is described as above. It is filed as cell-based. How it is done:
Dissociated cultures of embryonic chicken dorsal root ganglia (DRG) were generated as described in details by Krieglstein and Unsicker (Neurochem. Res., 21(7) (1996) 843-850). Briefly, DRGs from white Leghorn chick embryos (day 8) were dissected in Ca^2+-Mg^2+ free Hanks' balanced salt solution. After incubation in 0.08% trypsin for 15 min ganglia were dissociated by trituration. Cells were seeded in polyomithin-laminin coated 96-well microtiter plates (A/2 Costar) at a density of 1,200 cells/well. Growth factors were applied at the time of plating in a final volume of […] Dulbecco's Modified Eagle's Medium supplemented with 0.25% bovine serum albumin, N1 additives and 100 U/ml penicillin. As a positive control, nerve growth factor (NGF) was used at the saturating concentration of 5 ng/ml. After 48 h of incubation at 37° C. in a humidified atmosphere containing 5% CO2, cultures were fixed with 2.5% glutaraldehyde. Neuronal cells were identified by their phase-bright and neurite-bearing morphologies and counted within 30% of the total surface area using phase contrast microscopy. In the first set of experiments we tested the survival promoting effect of several growth factors of the bone morphogenetic protein family.
as §1, §2
Dissociated cultures of embryonic chicken dorsal root ganglia (DRGs) were generated as described in details by Krieglstein and Unsicker (Dev. Brain. Rees. 93 (1996) 10-17). Briefly, DRGs were dissected in Ca^2+-Mg^2+ free Hank's balanced salt solution (CMF). After incubation in 0.08% trypsin (BioWhittaker) for 15 min, ganglia were dissociated by gentle trituration using fire-polished Pasteur pipettes. Cells in suspension (neuron/non-neuron ratio 1:2) were seeded in polyomithin-laminin coated 96-well microtiter plates (A/2 Costar) at a density of 1,200 cells/well. Growth factors were applied at the time of plating in a final volume of 50 μl Dulbecco's Modified Eagle's Medium supplemented with 0.25% bovine serum albumin, N1 additives (Bottenstein et al., Exp. Cell Res. 125 (1980) 183-190) and 100 U/ml penicillin. As a positive control, nerve growth factor (NGF) was used at the saturating concentration of 10 ng/ml. After 48 h of incubation at 37° C. in a humidified atmosphere containing 5% CO2, cultures were fixed with 2.5% glutaraldehyde in phosphate buffered saline (PBS). Neuronal cells were identified by their phase-bright and neurite-bearing morphologies and counted within 30% of the total surface area using phase contrast microscopy. All experiments were performed in at least triplicate in two independent experiments. Data are presented as mean±SEM. Statistical comparisons were made with student's double t-test, ANOVA and MicrocalOrigin software. Differences were considered statistically significant at *P<0.05, **P<0.01, **P<0.001.

The test system of experiment [6] is chick sympathetic ganglionic (SG) neurons. The experiment is described as follows: Survival of embryonic chick sympathetic ganglionic (SG) neurons, 72 h, counting of surviving neurons. It is filed as cell-based. How it is done:
as §1, §2

[7] abbreviates: E8, serum-free, factor added by itself.

B1: GDNF: rh GDNF, neurotrophic factor, member of the TGF-β superfamily (protein, UniProt P39905 78-211, looked up)
Glial cell line-derived …: SPDKQMAVLPRRERNRQAAAANPENSRGKGRRGQRGKNRGCVLTAIHLNVTDLGLGYETKEELIFRYCSGSCDAAETTYDKILKNLSRNRRLVSDKVGQACCRPIAFDDDLSFLDDNLVYHILRKHSAKRCGCI
Take B1: the “survival of dopaminergic neurons relative to untreated control cultures” value in experiment [1] was 160%. The “protection of preganglionic neurons after adrenomedullectomy” value in experiment [2] was “fully protected the neurons”. Besides, in experiment [3] (E8, 24 h, compared with CNTF 5 ng/ml), the “CG neuron survival with GDNF supplemented with 10% horse serum” value is on record as “as effectively as a saturating concentration of CNTF”. Further, the “EC50 of the synergistic survival effect” value in experiment [3] (factor titrated in combination with 2 ng/ml of the other factor (GDNF/TGF-β), serum-free) is 0.06 ng/mL. Further, the “CG neuron survival, single factor in fully-defined medium” value in experiment [3] (serum-free, each at the saturating amount of 2 ng/ml) is “only marginal survival promoting effects”. For the same molecule, the “DRG neuron survival with GDNF in serum containing medium” value in experiment [4] was “levels identical to those achieved by addition of the respective neurotrophic factor”. In addition, in experiment [5] (setting [7]), the “DRG neuron survival, single factor in serum-free medium” value is on record as “virtually no survival promoting effect”. Besides, the “effect on DRG neuron survival when added together with GDF-5” value in experiment [5] (factor at saturating concentration plus GDF-5 20 ng/ml, E8, 48 h) is recorded as “synergistic or additive effects”. In addition, the “SG neuron survival with GDNF in serum containing medium” value in experiment [6] (E8, 10% horse serum, saturating GDNF, compared with NGF in serum-free medium) was “levels identical to those achieved by addition of the respective neurotrophic factor”. Also, the “SG neuron survival, single factor in serum-free medium” value in experiment [6] (setting [7]) is “virtually no survival promoting effect”.
